Measured values taken from patent US11267871B2, “Topical application for an anti-HSV antibody” (priority 2014, dated 2022).

Legend:
[1] = tested on: HSV-2 G; assay: Topical treatment of acute genital HSV-2 infection in immunodeficient mice (survival, clinical score); format: in vivo, mice (NOD.CB17-Prkdc^scid/NCrHsd); conditions: for mice with acute genital HSV-2 infection / local genital symptoms resolved at 48 h (number) / mice with acute genital HSV-2 infection / local genital symptoms resolved at 48 h (percent): 48 h after start of topical treatment, ACV 1 mg twice per day ongoing; for mice with acute genital HSV-2 infection / local genital symptoms resolved at 48 h (number) / mice with acute genital HSV-2 infection / local genital symptoms resolved at 48 h (percent) / mice in which HSV-2 lethal encephalitis was prevented: hu2c single 200 μg; for mice in which HSV-2 lethal encephalitis was prevented: topical, ACV 1 mg twice per day for 4 days
Experimental: FIG. 1: compares the survival of immunodeficient mice with acute genital HSV-2 infection after topical treatment either with the humanized monoclonal antibody hu2c or acyclovir. Female mice (NOD.CB17-Prkdc^scid/NCrHsd) were treated with a long-acting progestin (Depo-Clinovir, Pharmacia) 7 days prior to viral challenge to increase susceptibility to HSV-2 infection and to eliminate differences caused by the estrous cycle. Anesthetized mice were vaginally challenged with a lethal dose of 5×10^5 PFU of HSV-2 G (20 μl). Mice displaying visible infection (perineal hair loss, reddening, swelling) were treated one day after viral challenge (A) once with 40 μl hu2c (5 mg/ml) (●) or 40 μl control IgG (5 mg/ml) (□) or (B) twice daily for 4 days with 40 μl ACV (25 mg/ml) (Δ) or 40 μl PBS (x). Drug solutions or PBS were applied topically to the outer genital epithelium. Mice were monitored for 36 days after viral inoculation. Mice displaying sever systemic signs and/or severe lesions/zoster were killed. Surviving mice were sacrificed at day 36. Test groups contained eight animals each, control groups contained five animals each. Kaplan-Meier survival curves were analyzed by log-rank (Mantel-Cox) test. Two-tailed significance tests were used to compare the significance level between two groups. All protocols were approved by the Animal Care and Use Committee.
Mice displaying visible infection (perineal hair loss, reddening, swelling) one day after intravaginal challenge with a lethal dose of 5×10^5 PFU of HSV-2 G (20 μl) were treated (A & C) twice daily for 4 days with (A) 40 μl PBS or (C) 40 μl ACV (25 mg/ml), or treated (B & D) once at 24 h post infection with (B) 40 μl hu2c (5 mg/ml) or (D) 40 μl control IgG (5 mg/ml). Drug solutions or PBS were applied topically to the outer genital epithelium.
Infected animals were observed daily and their clinical status was scored as follows: 0, lack of symptoms, no lesions; 1-2, redeness and/or swelling (erosion); 3, localized lesion <1 mm; 4-5, localized lesion 2-3 mm; 6-7 localized lesion 4-5 mm; 8-9, severe hyperemia, destruction of the epithelium and stroma with necrosis; 10, systemic signs, death. Animals with grading >8 were killed to prevent undue suffering. Test groups contained eight animals each, control groups contained five animals each. Arrows indicate time points of treatment.
• The ability of the humanized monoclonal antibody hu2c to alter the clinical course of acute genital HSV-2 infection in immunodeficient mice following a single topical treatment with 200 μg mAb hu2c (5 mg/ml) was investigated. To infect 100% of mice as assessed by visible lesions and culture of vaginal lavage, a viral inoculum of 5×10^5 PFU of HSV-2 G was delivered to the vagina of anesthetized mice. • Although acute HSV-1 or HSV-2 infections result in a fatal outcome in 100% of mice with severe combined immunodeficiency when compared to 70-90% mortality in immunocompetent mice, the immunodeficient model has nevertheless been chosen to discriminate a possible clinical efficacy of the therapy from an elimination of the viral infection due to immune effector cells of the mouse (Minagawa et al., Arch Virol 103, 73-82 (1988); Nagafuchi et al., J Gen Virol 44, 715-723 (1979)). Within genital mucosa the expansion rates of HSV-2 are extremely rapid. At 24 h after viral challenge infected mice received topically at the infected area either twice per day for 4 days 1 mg acyclovir (ACV) (25 mg/ml) or 40 μl buffer (PBS) or a single treatment of 200 μg mAb hu2c (5 mg/ml) or 200 μg control mAb (5 mg/ml). Clinical efficacy of the HSV-specific mAb was compared to the irrelevant mAb (isotypcontrol), ACV and PBS treatment by means of Kaplan-Meier survival curves and daily assessment of the clinical status of the mucous membranes of the genital and anal area. […]

[2] = tested on: recurrent herpes labialis; conditions: 5 times per day for 4 days, cited from earlier work
[3] = tested on: oral herpes infection (HSV-1 or HSV-2, type not analyzed); assay: Topical application of humanized anti-HSV antibody in volunteers with acute recurrence of oral herpes (cold sores); format: in vivo, human
Experimental: 1.2 Trial Description • Between 2010-2013, twelve healthy 30-59 year old volunteers (7 female, 5 male) with an acute recurrence of oral herpes infection (cold sores) were treated. Volunteers presented themselves when the onset of initial HSV symptoms (itching of the lips, burning or tingling near the lips or mouth area) occurred or had progressed to visible skin disorders on the outer lips. […] However, sometimes HSV-2 is spread to the mouth during oral sex, causing oral herpes. The type of HSV infection (HSV-1 or HSV-2) was not analyzed. • The antibody was packaged as sterile solutions either in PBS or PBS/ash créme (1:1) at concentrations of 0.7-1 mg/ml. Participants applied approx. 10 μl of the antibody topically once, once per day for two days or for a total of three times maximum.
2. Results • ZOVIRAX Cream had been evaluated in 2 double-blind, randomized, placebo (vehicle)-controlled trials (see Zovirax N-. Zovirax Prescribing Information. http://wwwaccessdatafdagov/drugsatfda_docs/label/2002/21478_zovirax_Ib|pdf#page=1&zoom=auto,0,792). • In the Zovirax studies, subjects were instructed to initiate treatment within 1 hour of noticing signs or symptoms and continue treatment for 4 days, with application of study medication 5 times per day. […] At time of treatment several small blisters were visible. For the antibody treated HSV infection a quick recovery was observed.

[4] = 72 h after commencement of ACV treatment
[5] = one volunteer, upper lip, antibody three times

Molecule | mice with acute genital HSV-2 infection / local genital symptoms resolved at 48 h (number) [1] | mice with acute genital HSV-2 infection / local genital symptoms resolved at 48 h (percent) [1] | mice with no local signs at 72 h (number) [1, 4] | mice with no local signs at 72 h (percent) [1, 4] | mice in which HSV-2 lethal encephalitis was prevented [1] | reduction of episode duration compared with placebo [2] | mean duration of the recurrent herpes labialis episode ([2]; placebo 5 days) | spread of the infected area upon treatment ([3]; all participants) | fast symptom and pain relief after application ([3]; all participants, approx. 10 μl of 0.7-1 mg/ml, one to three applications) | overall rates of clinical reactivation (participants' impression) ([3]; human, in vivo) | occurrence of lesions ([3]; one volunteer, upper lip) | time to disappearance of blisters [3, 5] | time until swelling subsided [3, 5] | healing when treatment started at stage of visible external herpetic lesions ([3]; participants' report) | course of active blisters ([3]; participants' report or one volunteer with upper lip (antibody) and lower lip (Zovirax)) | time to elimination of the infection ([3]; topical administration, acute infection of the tissue of the lips)
Nc1nc(=O)c2ncn(COCCO)c2[nH]1 [ACV, 2-Amino-9-(2-hydroxyethoxymethyl)-3H-purin-6-on] | 1 out of 8 | 13% | 5 out of 8 | 63% | 1 out of 8 | 0.5 days | 4.5 days |  |  |  |  |  |  |  |  | 
mAb hu2c: humanized derivative of murine mAb 2c recognizing glycoprotein B of HSV-1/2; CDRs grafted into DP28/DPK13, human γ1 and κ constant chains (antibody, V domains shown, VH of the humanized mAb hu2c antibody; VL of the humanized mAb hu2c antibody, humanized derivative of murine mAb 2c recognizing glycoprotein B of HSV-1/2; CDRs grafted into DP28/DPK13, human γ1 and κ constant chains) VH: QVTLKESGPALVKPTQTLTLTCTFSGFSLSTSGMSVGWIRQPPGKALEWLAHIWWNNDKYYKPALKSRLTISKDTSKNQVVLTMTNMDPVDTATYYCARIYYGYRPYAMDYWGQGTLVTVSS VL: DIVMTQTPLSLPVTPGEPASISCRSSQSIVHSNGNTYLEWYLQKPGQSPQLLIYKVSNRFSGVPDRFSGSGSGTDFTLKISRVEAEDVGVYYCFQGSHVPWSFGQGTKVEIKR | 7 out of 8 | 88% |  |  | 1 out of 8 |  |  | did not spread | ≤ 24 h | tend to be reduced | no lesions occurred | ≤ 24 h | ≤ 48 h | rapid healing and disappearance of crusted areas | regressed and did not turn into weeping blisters | ≤ 24 h
